Experimental data: PMC10583602

Columns and labels:
[1] = biological target: TnsC with the apical loop E69-D75 deleted (Vibrio cholerae); assay: SEC
[2] = biological target: TnsC(ΔA106–A113) (Vibrio cholerae); assay: SEC
[3] = biological target: Vibrio cholerae TnsC (VchTnsC), full length, tag cleaved (Vibrio cholerae); assay: SEC
[4] = biological target: Vibrio cholerae TnsC (VchTnsC), full length, tag cleaved (Vibrio cholerae); assay: cryo-EM structure

Substance: TnsC with the apical loop E69-D75 deleted (natural protein)
- stoichiometry N [1]: 7

Substance: TnsC(ΔA106–A113) (natural protein)
- stoichiometry N [2]: 7

Substance: Vibrio cholerae TnsC (VchTnsC), full length, tag cleaved (natural protein)
- stoichiometry N [3]: 7
- stoichiometry N [4]: 7
